US5780289

Target: E. acervulina merozoite antigen (whole merozoites coated on the plate, or sonicated merozoites)

Substance | 3H-thymidine incorporation in Dcpm
peripheral blood leucocytes of chickens immunised with purified Eam20 (cells without a defined receptor) | 922 Dcpm
peripheral blood leucocytes of chickens immunised with purified Eam45 (cells without a defined receptor) | 716 Dcpm
peripheral blood leucocytes of chickens immunised with purified Eam100 (cells without a defined receptor) | 1190 Dcpm
peripheral blood leucocytes of chickens immunised with purified Eam200 (cells without a defined receptor) | 692 Dcpm
peripheral blood leucocytes of control chickens (cells without a defined receptor) | 14 Dcpm
